Data reported in the supplement of paper PMC7125110.
± gives the standard error. For some of these results: Variants at the floor of the assay were thinned out.

B1: glmS ribozyme (parent)
chain: AUAAAAGCGCCAGAACUACAGAAAUGUAGUUGACGAGGAGGAGGUUUAUCGAAUUUUCGGCGGAUGCCUCCAAA

How the values were obtained:
Details in all cases: with glucosamine-6-phosphate
glucosamine-6-phosphate [1] = variants of: B1; assay: kcat; higher = faster cleavage; RNA array
How it was run: (§1)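 Tracking of barcoded ribozyme variants used a hybridised Cy3 probe at 37 °C, after in situ transcription by E. coli RNA polymerase on sequenced MiSeq chips. The flowed solution held 40 μM to 10 mM glucosamine-6-phosphate in HEPES/KCl/Mg(OAc)2 buffer, and imaging ran over ~14 h. kobs was taken from exponential decay fits of normalised per-tile medians, and kcat and KM from weighted Michaelis–Menten fits.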

glucosamine-6-phosphate [2] = variants of: B1; assay: self-cleavage kobs at 160 uM GlcN6P; higher = faster cleavage; RNA array
How it was run: as §1

glucosamine-6-phosphate [3] = variants of: B1; assay: self-cleavage kobs at 640 uM GlcN6P; higher = faster cleavage; RNA array
How it was run: as §1

glucosamine-6-phosphate [4] = variants of: B1; assay: KM; higher = weaker cofactor use; RNA array
How it was run: as §1

glucosamine-6-phosphate [5] = variants of: B1; assay: self-cleavage kobs at 2500 uM GlcN6P; higher = faster cleavage; RNA array
How it was run: as §1

glucosamine-6-phosphate [6] = variants of: B1; assay: self-cleavage kobs at 10000 uM GlcN6P; higher = faster cleavage; RNA array
How it was run: as §1

glucosamine-6-phosphate [7] = variants of: B1; assay: self-cleavage kobs at 40 uM GlcN6P; higher = faster cleavage; RNA array
How it was run: as §1

| Variant | kcat (glucosamine-6-phosphate [1]) | self-cleavage kobs at 160 uM GlcN6P (glucosamine-6-phosphate [2]) | self-cleavage kobs at 640 uM GlcN6P (glucosamine-6-phosphate [3]) | KM (glucosamine-6-phosphate [4]) | self-cleavage kobs at 2500 uM GlcN6P (glucosamine-6-phosphate [5]) | self-cleavage kobs at 10000 uM GlcN6P (glucosamine-6-phosphate [6]) | self-cleavage kobs at 40 uM GlcN6P (glucosamine-6-phosphate [7]) |
| --- | --- | --- | --- | --- | --- | --- | --- |
| A6G A12G | 1.13e-05 ± 1.3e-06 s⁻¹ |  |  |  |  |  |  |
| A6U G7A | < 1e-05 s⁻¹ | < 1e-05 s⁻¹ | < 1e-05 s⁻¹ |  |  |  |  |
| A6C G29A U57G U69G | 3.11e-05 ± 1.2e-05 s⁻¹ |  |  |  |  |  |  |
| C11A A15U | 6.57e-05 ± 4.8e-06 s⁻¹ |  |  | 1510 ± 380 µM | 3.75e-05 ± 1.7e-05 s⁻¹ | 5.85e-05 ± 1.7e-05 s⁻¹ |  |
| C11A C67G | 5.42e-05 ± 1.1e-05 s⁻¹ | 3.16e-05 ± 1.1e-05 s⁻¹ | 8.75e-05 ± 1.5e-05 s⁻¹ |  | 3.8e-05 ± 1e-05 s⁻¹ | 5.65e-05 ± 8.7e-06 s⁻¹ |  |
| A6C C8U G35C C58G | < 1e-05 s⁻¹ |  | < 1e-05 s⁻¹ |  |  | < 1e-05 s⁻¹ |  |
| C11G | < 1e-05 s⁻¹ |  |  | 665 ± 260 µM |  | < 1e-05 s⁻¹ | < 1e-05 s⁻¹ |
| C11U | 0.00338 ± 0.00074 s⁻¹ | 0.000216 ± 7.8e-06 s⁻¹ | 0.000837 ± 8.1e-05 s⁻¹ | 1800 ± 450 µM | 0.00508 ± 0.0016 s⁻¹ | 0.00293 ± 9.8e-05 s⁻¹ | 8.01e-05 ± 1.4e-06 s⁻¹ |
| C11A | 0.000291 ± 2.1e-05 s⁻¹ | 2.39e-05 ± 2.4e-06 s⁻¹ | 6.25e-05 ± 1.7e-06 s⁻¹ | 2280 ± 280 µM | 0.000153 ± 3.1e-06 s⁻¹ | 0.000236 ± 1.4e-05 s⁻¹ | < 1e-05 s⁻¹ |
| G9U C50G | 2.48e-05 ± 1.1e-05 s⁻¹ |  |  |  |  |  |  |
| G7A C34U C70G | 1.85e-05 ± 9.1e-06 s⁻¹ |  |  |  |  |  |  |
| C10U A36U | < 1e-05 s⁻¹ | < 1e-05 s⁻¹ |  |  |  | < 1e-05 s⁻¹ | < 1e-05 s⁻¹ |
| A6U G32A | < 1e-05 s⁻¹ | < 1e-05 s⁻¹ |  |  |  |  | < 1e-05 s⁻¹ |
| A6U U54C | 0.000261 ± 4.2e-05 s⁻¹ |  | 5.25e-05 ± 1.2e-05 s⁻¹ | 2260 ± 670 µM | 0.000165 ± 3.3e-05 s⁻¹ | 0.000195 ± 4.6e-05 s⁻¹ |  |
| C10G G32C | < 1e-05 s⁻¹ | < 1e-05 s⁻¹ | < 1e-05 s⁻¹ |  |  |  |  |
| A6C U45A | 0.000229 ± 1.7e-05 s⁻¹ |  | 3.95e-05 ± 1.9e-05 s⁻¹ | 3720 ± 750 µM | 8.34e-05 ± 2.8e-05 s⁻¹ | 0.000168 ± 2.1e-05 s⁻¹ | < 1e-05 s⁻¹ |
| A6U U45G | 0.000193 ± 3.9e-05 s⁻¹ | < 1e-05 s⁻¹ |  |  |  | 4.41e-05 ± 9.1e-06 s⁻¹ |  |
| G7C G38C | < 1e-05 s⁻¹ |  |  |  |  | < 1e-05 s⁻¹ |  |
| C8A C71G | 1.09e-05 ± 3.7e-06 s⁻¹ |  |  |  |  |  |  |
| A6G C70A | < 1e-05 s⁻¹ |  |  |  |  | < 1e-05 s⁻¹ | < 1e-05 s⁻¹ |
| G9U C61A | 0.00139 ± 0.00021 s⁻¹ | 0.00013 ± 2.7e-05 s⁻¹ | 0.000373 ± 5.1e-05 s⁻¹ | 1500 ± 360 µM | 0.000927 ± 0.00013 s⁻¹ | 0.00121 ± 0.00023 s⁻¹ | 4.72e-05 ± 9.6e-06 s⁻¹ |
| A6G U55G | 0.000588 ± 4.1e-05 s⁻¹ |  | 0.000133 ± 3.4e-05 s⁻¹ | 2390 ± 350 µM | 0.000299 ± 5.2e-05 s⁻¹ | 0.000473 ± 7.8e-05 s⁻¹ |  |

| Variant | kcat (glucosamine-6-phosphate [1]) | self-cleavage kobs at 160 uM GlcN6P (glucosamine-6-phosphate [2]) | self-cleavage kobs at 640 uM GlcN6P (glucosamine-6-phosphate [3]) | KM (glucosamine-6-phosphate [4]) | self-cleavage kobs at 2500 uM GlcN6P (glucosamine-6-phosphate [5]) | self-cleavage kobs at 10000 uM GlcN6P (glucosamine-6-phosphate [6]) | self-cleavage kobs at 40 uM GlcN6P (glucosamine-6-phosphate [7]) |
| --- | --- | --- | --- | --- | --- | --- | --- |
| A6C C61A | < 1e-05 s⁻¹ |  |  |  |  | < 1e-05 s⁻¹ | < 1e-05 s⁻¹ |
| G7A U69A | 1.56e-05 ± 3.6e-06 s⁻¹ |  |  |  |  |  |  |
| C10U C67G U69G | 1.67e-05 ± 3.6e-06 s⁻¹ |  |  |  |  |  |  |
| C10U A33U U54C | 4.81e-05 ± 4.1e-06 s⁻¹ |  |  | 3720 ± 750 µM |  | 3.5e-05 ± 1.5e-05 s⁻¹ |  |
| C10U U69G | 2.93e-05 ± 5.7e-06 s⁻¹ | 2.85e-05 ± 8.2e-06 s⁻¹ | 2.55e-05 ± 1.1e-05 s⁻¹ |  | 3.24e-05 ± 9.9e-06 s⁻¹ |  |  |
| C11G A39U | < 1e-05 s⁻¹ | < 1e-05 s⁻¹ |  |  | < 1e-05 s⁻¹ |  |  |
| C11G U30A | 4.67e-05 ± 2.4e-06 s⁻¹ |  |  |  |  |  |  |
| C10U G60A | 1.02e-05 ± 1.8e-06 s⁻¹ |  |  |  |  |  | < 1e-05 s⁻¹ |
| C10A U54A | < 1e-05 s⁻¹ |  |  |  |  |  | < 1e-05 s⁻¹ |
| G9A A12C | < 1e-05 s⁻¹ |  | < 1e-05 s⁻¹ |  |  |  |  |
| A6U G29C | < 1e-05 s⁻¹ | < 1e-05 s⁻¹ | < 1e-05 s⁻¹ |  |  |  | < 1e-05 s⁻¹ |
| A6U C58G | < 1e-05 s⁻¹ |  |  |  |  | < 1e-05 s⁻¹ | < 1e-05 s⁻¹ |
| C10A U65G | < 1e-05 s⁻¹ |  | < 1e-05 s⁻¹ |  | < 1e-05 s⁻¹ | < 1e-05 s⁻¹ | < 1e-05 s⁻¹ |
| C11G U56G | 1.32e-05 ± 5.5e-06 s⁻¹ |  | < 1e-05 s⁻¹ |  |  |  | < 1e-05 s⁻¹ |
| G7U G51A G62A C70U | 1.17e-05 ± 2.6e-06 s⁻¹ |  |  |  |  |  |  |
| C10U A15G | 2.54e-05 ± 2e-06 s⁻¹ |  |  | 4700 ± 910 µM |  |  | < 1e-05 s⁻¹ |
| A6U G43U | < 1e-05 s⁻¹ | < 1e-05 s⁻¹ | < 1e-05 s⁻¹ | 6890 ± 1100 µM |  |  | < 1e-05 s⁻¹ |
| G7A C16G | < 1e-05 s⁻¹ | < 1e-05 s⁻¹ |  |  | < 1e-05 s⁻¹ | < 1e-05 s⁻¹ | < 1e-05 s⁻¹ |
| A6U C16A | 1.85e-05 ± 5.8e-06 s⁻¹ |  |  |  |  |  |  |
| G7A U45A | 3.18e-05 ± 3.1e-06 s⁻¹ |  |  |  |  | 2.85e-05 ± 1.2e-05 s⁻¹ |  |
| C8U G38A | < 1e-05 s⁻¹ |  |  | 371 ± 120 µM |  |  | < 1e-05 s⁻¹ |
